The values below come from patent publication US20230000956A1, “COMBINATION THERAPY WITH GLUCARPIDASE WITH METHOTREXATE/RITUXIMAB TO TREAT CNS LYMPHOMA” (MEMORIAL SLOAN KETTERING CANCER CENTER, priority 2019, published 2023).

One may read the half-life as how long it takes for the measured level to halve.

Data set [1] in a line: Serum MTX level after outpatient HD-MTX with glucarpidase (Example 3). The conditions noted are these: human, intravenous, outpatient MTX 3.5 g/m^2, glucarpidase 2000 U next day, 7 treatments, 3 patients, all cases, read-out: serum MTX levels at 48 hours. The format is in vivo.
Data set [2] in a line: Serum MTX levels before and after glucarpidase, mass spectrometry (Example 1).
Method: (§2) Patients were enrolled into two cohorts with Cohort A receiving MTX 3 g/m^2 and Cohort B receiving MTX 6 g/m^2. Glucarpidase 2000 U or 1000 U was administered 24 hours following the initiation of MTX infusion. […] In the present Example, rituximab was administered on Day 1, MTX on Day 2, glucarpidase Day 3, followed by an 11-day non-treatment period before the start of the next cycle.
Data set [3] can be described thus: CSF MTX concentrations following glucarpidase (Example 1). The data set is classed as in vivo, human. The conditions noted are these: evaluated in two patients. The protocol: (§1) Cerebrospinal fluid (CSF) was collected throughout treatment. Serum was collected for analysis of anti-glucarpidase antibodies. […] Rituximab was always dosed at 500 mg/m^2.
Data set [4] can be described thus: CSF MTX and glucarpidase (Example 2). As to the method:
Methods. In a phase I dose-finding study of planned-use glucarpidase following HD-MTX, patients were treated with either MTX at 3 g/m^2, 6 g/m^2, or 8 g/m^2. Glucarpidase was dose-reduced to 1000 U or 2000 U and given 24 hours after MTX. […] MTX levels following glucarpidase were determined via mass spectrometry as immunoassay fails to differentiate MTX from byproducts.

The conditions of data set [5]: cited from earlier work.
For data set [6] the following is noted: cited from earlier work. This is another data set of the same source.
In data set [7] the test system is CNSL. The settings on record: cited from earlier work.
The format of data set [8] is in vivo, human.
Data set [9] is described as follows: Adverse events (Example 1). On the set-up: species or system human. The conditions noted are these: in vivo. From the text:
A cycle is typically 14±7 days.

For data set [10], the system named is anti-glucarpidase antibodies. The conditions noted are these: in vivo; cited from earlier work.
On the set-up of data set [11]: species or system human. The conditions noted are these: in vivo.
The conditions of data set [12]: in vivo.
Method: as §2
The conditions of data set [13]: in vivo; cited from earlier work.
The test system of data set [14] is anti-glucarpidase antibodies. More on the design: species or system human. The conditions noted are these: in vivo.
Data set [15] addresses T1, glucarpidase enzymatic activity (Pseudomonas sp., UniProt P06621).
T1 sequence (P06621 23-415): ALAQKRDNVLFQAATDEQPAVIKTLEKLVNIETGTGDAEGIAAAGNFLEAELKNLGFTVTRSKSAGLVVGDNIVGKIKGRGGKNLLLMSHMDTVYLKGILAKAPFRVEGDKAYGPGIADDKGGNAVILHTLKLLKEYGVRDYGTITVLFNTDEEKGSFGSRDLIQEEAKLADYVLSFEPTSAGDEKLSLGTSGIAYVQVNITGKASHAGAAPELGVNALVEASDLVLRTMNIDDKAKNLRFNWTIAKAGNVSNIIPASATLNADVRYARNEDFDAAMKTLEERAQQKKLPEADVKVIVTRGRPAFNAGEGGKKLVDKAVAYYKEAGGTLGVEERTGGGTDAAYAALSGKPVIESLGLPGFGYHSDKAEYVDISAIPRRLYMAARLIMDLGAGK
The settings on record: serum from four of 22 patients with an antibody response; cited from earlier work.

The test system of data set [16] is anti-glucarpidase antibodies. Briefly: Anti-glucarpidase antibodies in serum (Example 1). The format is in vivo, human. The settings on record: two patients, one result per patient. As to the method:
as §1

For data set [17] the following is noted: cited from earlier work. This is another data set of the same source.
[18] abbreviates: around 24 hours after glucarpidase, 8 doses.
Where [19] appears, read: typically around 24 hours after glucarpidase.
The mark [20] stands for this setting: setting of MTX-related acute kidney injury.

“Also recorded” adds a separate entry of the source. Like-named read-outs stand apart in the source and are kept apart here.

On to `CN(Cc1cnc2nc(N)nc(N)c2n1)c1ccc(C(=O)N[C@@H](CCC(=O)O)C(=O)O)cc1` [MTX, Methotrexate], for which the concentration at 48 h in [1] was under 100 nM. For the same molecule, in data set [2] (setting [18]), the “median elevation of MTX (transient increase)” value came out at 290 nmol/L and the “range of elevation of MTX (transient increase)” value is 119 to 516 nmol/L. Besides, the “serum MTX levels within 15 minutes of glucarpidase” value in data set [2] (in 23/24 doses) was “less than 100 nmol/L”. In addition, in [2] (setting [19]), the “doses followed by transient increase in MTX levels above 100 nmol/L” value is 8 of 24 and the “share of doses followed by transient increase in MTX levels above 100 nmol/L” value is recorded as 33%. The “CSF methotrexate concentrations following glucarpidase administration” value in data set [3] is listed as “remained therapeutic”. In data set [4] (25 hours following MTX administration (1 hour after glucarpidase)), the “MTX concentrations in CSF (potentially cytotoxic)” value is recorded as 10^−6 M. Moreover, the “CSF MTX concentrations following glucarpidase (conclusion)” value in data set [4] (in vivo) was “remain at cytotoxic levels”. For the same molecule, the “adults sustaining acute kidney injury” value in data set [5] (HD-MTX) is 2-12%. In addition, the “incidence of systemic toxicities (hepatic injury, pneumonitis, bone marrow suppression)” value in data set [5] (in vivo) is given as under 10%. In data set [5] (setting [20]), the “patients requiring MTX dose reduction” value was 14-44% and the “patients with premature cessation of therapy” value is recorded as 5-8%. Further, the “blood brain barrier penetration” value in data set [6] (high doses (>1.5 g/m^2) as a rapid infusion) is on record as “penetrates the blood brain barrier”. In addition, in data set [6] (in vivo), the “share cleared via renal excretion” value is 70-90%. Further, the “overall response rates (ORR)” value in data set [7] (PCNSL, upfront setting) was “up to 74%”. In addition, the survival benefit result in [7] (retrospective analysis of 357 patients, regimens with doses 3 g/m^2) is recorded as “statistically significant survival benefit”.

B1: glucarpidase: recombinant bacterial enzyme that cleaves serum MTX to inactive metabolites (SEQ ID NO: 1) (protein)
chain: ALAQKRDNVLFQAATDEQPAVIKTLEKLVNIETGTGDAEGIAAAGNFLEAELKNLGFTVTRSKSAGLVVGDNIVGKIKGRGGKNLLLMSHMDTVYLKGILAKAPFRVEGDKAYGPGIADDKGGNAVILHTLKLLKEYGVRDYGTITVLFNTDEEKGSFGSRDLIQEEAKLADYVLSFEPTSAGDEKLSLGTSGIAYVQVNITGKASHAGAAPELGVNALVEASDLVLRTMNIDDKAKNLRFNWTIAKAGNVSNIIPASATLNADVRYARNEDFDAAMKTLEERAQQKKLPEADVKVIVTRGRPAFNAGEGGKKLVDKAVAYYKEAGGTLGVEERTGGGTDAAYAALSGKPVIESLGLPGFGYHSDKAEYVDISAIPRRLYMAARLIMDLGAGK
Consider B1, for which the “reduction in serum MTX levels within 15 minutes” value in [8] (glucarpidase 1000 U (14 treatments) or 2000 U (36 treatments), following 49/50 doses) is on record as at least 95%. In data set [8] (glucarpidase 1000 U or 2000 U), the “doses with at least a 95% reduction in serum MTX levels within 15 minutes” value is listed as 49/50. Besides, the “decrease in serum MTX levels, remaining dose” value in data set [8] (in vivo) worked out at 93%. Besides, in data set [8] (low-dose glucarpidase), the “efficacy after repeated doses and antibody formation” value is “remains effective even after repeated doses and despite the formation of anti-glucarpidase antibodies”; the “reduction of MTX levels (conclusion)” value is over 95%. For the same molecule, the “adverse events associated with glucarpidase administration” value in data set [9] is “no adverse events associated with glucarpidase administration”. In [2] (glucarpidase 2000 U or 1000 U), the “doses with at least a 95% reduction in serum MTX levels within 15 minutes” value was 23/24 and the “share of doses with at least a 95% reduction in serum MTX levels within 15 minutes” value amounted to 96%. For the same molecule, the “reduction in serum MTX levels within 15 minutes of administration” value in data set [2] (glucarpidase 2000 U or 1000 U 24 h after MTX 3 or 6 g/m^2, in 23/24 doses) is at least 95%. Besides, in data set [2] (low-dose glucarpidase 24 hours after MTX), the “effect on serum MTX levels (summary)” value is reported as “rapid reduction in serum MTX levels”. In addition, in data set [10], the “antibody formation post glucarpidase” value is recorded as 37-43% and the patients developing antibodies entry is “roughly 17%”. Further, in [11], the “grade 3 events” value is recorded as “no grade 3 events” and the “grade 4 events” value is “only one grade 4 anaphylactic reaction”. Moreover, in data set [12], the “decrease in serum MTX levels, remaining dose” value came out at 93%. In data set [4] (in vivo), the “glucarpidase in the CSF” value is on record as “not detected”. In data set [13], the half-life was 6 to 9 h and the volume of distribution is 3.6 L. Besides, the “patients with anti-glucarpidase antibodies detected” value in data set [14] was 6 of 8. For the same molecule, the “inhibition of glucarpidase enzymatic activity in vitro by patient serum” value in [15] is 28-58%. Besides, in data set [16], the “anti-glucarpidase antibody titer levels” value was “detectable anti-glucarpidase antibodies; also recorded: did not develop any anti-glucarpidase antibodies”. Further, the “safety and efficacy at approved dose” value in [17] (50 units/kg, patients with delayed MTX elimination from renal impairment) was “safe and efficacious”. The “patients reporting nausea, vomiting, hypotension, paresthesias, flushing, and headache” value in data set [17] (in vivo) is recorded as under 3%.
